Test [1] relates to Cynomolgus monkey CD40-his. Briefly: Biacore surface plasmon resonance affinity and binding kinetics. Conditions: for Kd: dissociation rate. An excerpt:
(§1) The affinity and binding kinetics of the anti-CD40 antibody in the present application were characterized by a Biacore T200 system (GE Healthcare, Pittsburgh, PA, USA).
(§2) Briefly, a goat anti-human IgG (GE Healthcare, Cat. No. BR100839, human antibody capture kit) was covalently linked to a CM5 chip (GE Healthcare, Cat. No. BR100530, carboxymethylated dextran-coated chip) via the primary amine group using a standard amine coupling kit supplied by Biacore (GE Healthcare, Pittsburgh, PA, USA). Unreacted portions on the biosensor surface were blocked with ethanolamine. Then, the anti-CD40 antibody of the present application and two benchmark antibodies (BM1 (dacetuzumab, Genentech Inc., also referred to CD40-BM1, prepared in-house; the heavy and light chain amino acid sequences are set forth in SEQ ID NOs: 40 and 41, respectively) and BM2 (selicrelumab, Abgenix Inc., also referred to CD40-BM2, prepared in-house; the heavy and light chain amino acid sequences are set forth in SEQ ID NOS: 42 and 43, respectively)) at a concentration of 66.67 nM were directed through the chip at a flow rate of 10 μL/min. Then, serially diluted recombinant human CD40-his (Acro biosystems, Cat. No. CD0-H5228, serially 2-fold diluted from 80 nM in HBS-EP^+ buffer (supplied by Biacore)) or cynomolgus monkey CD40-his protein (Acro biosystems, Cat. No. CD0-C52H6, serially 2-fold diluted from 80 nM in HBS-EP^+ buffer (supplied by Biacore)) was directed through the chip at a flow rate of 30 μL/min. The antigen-antibody binding kinetics was tracked for 2 min and the dissociation kinetics was tracked for 10 min. The association and dissociation curves were fitted to a 1:1 Langmuir binding model using BIAcore evaluation software. KD, Ka, and Kd values were determined.
In general terms: SPR reads the build-up and loss of mass on a sensor chip optically.

Test [2] deals with T1, Human CD40-his (Homo sapiens, UniProt P25942).
T1 construct: His; purchased Acro biosystems CD0-H5228
T1 sequence (P25942 21-277): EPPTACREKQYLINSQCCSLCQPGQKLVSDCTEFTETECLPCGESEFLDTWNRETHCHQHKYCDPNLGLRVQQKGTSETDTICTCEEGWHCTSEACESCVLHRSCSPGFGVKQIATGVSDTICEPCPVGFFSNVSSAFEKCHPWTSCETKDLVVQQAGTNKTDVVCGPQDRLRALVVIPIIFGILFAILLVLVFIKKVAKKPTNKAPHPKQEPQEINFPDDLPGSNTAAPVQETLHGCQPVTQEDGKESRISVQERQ
The description is as above. Conditions: for Kd: dissociation rate.
Description: as §1, §2

Test [3] deals with T1, Human CD40-his. Kind of test: Octet kinetics of humanized C1H1 antibodies. The format is binding. Conditions: Table 3, Octet; for Ka: humanized antibodies in cell supernatant, chimeric and benchmark 5 μg/mL. How it is done:
After six days of culture in a shake flask, the cell supernatant containing the humanized antibodies huC1H1-V1 to huC1H1-V4 was harvested and the binding affinity of the antibodies to human CD40 was determined on an Octet system (Fortebio, Octet RED 96) according to the following procedures. Briefly, an anti-human IgG Fc capture (AHC) biosensor (from ForteBio) was pre-soaked in a 10 mM glycine solution (pH 1.5) for 3 s, and then soaked in a running buffer (PBST containing 0.5% w/v of BSA) for 3 s. The pre-soaking and soaking procedures were repeated 3 times. Then, the sensor was soaked in the cell supernatant containing the humanized anti-CD40 antibody, chimeric antibody C1H1 dissolved in HBS-EP^+ buffer at a concentration of 5 μg/mL, or the benchmark dissolved in HBS-EP^+ buffer at a concentration of 5 μg/mL for 120 s, and then soaked in the running buffer for 5 min. The new baseline was run in the running buffer for 180 s. The sensor was then soaked for 120 s in human CD40-his protein (Acro biosystems, Cat. No. CD0-H5228) 2-fold serially diluted from 40 nM in the running buffer and for 10 min in the running buffer […]. Finally, the sensor was pre-soaked in a 10 mM glycine solution (pH 1.5) for 3 s, and then soaked in the running buffer for 3 s. The pre-soaking and soaking procedures were repeated 3 times. The association and dissociation curves were fitted to a 1:1 Langmuir binding model using ForteBio Data Analysis 8.1.
On the technique in general: Biolayer interferometry detects binding as a change in optical thickness at a sensor tip.

The target of test [4] is human CD40-Fc protein (Homo sapiens, UniProt P25942). Kind of test: Capture ELISA binding. Conditions: in words, FIGS. 1A-1C. How it is done: For capture ELISA, an affinity-purified goat anti-human IgG (F(ab′)2 fragment-specific, Jackson Immuno Research, Cat. No. 109-005-097) in PBS at a concentration of 2 μg/mL was immobilized on a 96-well plate at 100 μL/well and incubated overnight at 4° C. The plate was washed once with a washing buffer (PBS+0.05% v/v of Tween-20, PBST) and then blocked with 200 μL/well blocking buffer (PBST containing 5% w/v of skim milk) for 2 h at 37° C. The plate was washed 4 times, and the anti-CD40 antibody of the present application, BM1, BM2, and a negative control hIgG (human immunoglobulin for intravenous injection (pH 4), Hualan Biological Engineering Inc.) serially 5-fold diluted from 66.7 nM in a PBST containing 2.5% w/v of skim milk was added at 100 μL per well. The plate was incubated for 40 min at 37° C. and washed 4 times. A biotinylated human CD40-Fc protein (amino acid residues 21-193 of SEQ ID NO: 30 linked to the N terminus of amino acid residues 99-330 of SEQ ID NO: 28, dissolved in PBST containing 2.5% w/v of skim milk at a concentration of 1.15 nM) was added at 100 μL/well to a 96-well plate coated with the anti-CD40 antibody. The plate was incubated at 37° C. for 40 min and washed 4 times. An HRP-labeled streptavidin (diluted at 1:10000 in PBST, Jackson Immuno Research, Cat. No. 016-030-084) was added at 100 μL/well, and the plate was incubated at 37° C. for another 40 min. […]
Chain of human CD40-Fc protein (P25942 21-193): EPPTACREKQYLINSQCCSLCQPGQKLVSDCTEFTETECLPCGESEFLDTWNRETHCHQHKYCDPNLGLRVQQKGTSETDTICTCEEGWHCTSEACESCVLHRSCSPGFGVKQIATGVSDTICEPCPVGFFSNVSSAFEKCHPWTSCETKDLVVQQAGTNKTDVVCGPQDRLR
(An ELISA detects its analyte on a solid surface through an enzyme-linked reagent.)

Where [5] appears, read: Table 2, Biacore, association rate.
[6] abbreviates: Table 5, Biacore, purified antibodies.

B1: Chimeric C1H1: C1H1 variable regions (SEQ ID NOs: 19, 23) on human IgG1 heavy chain and human κ light chain constant regions (antibody, V domains shown)
VH: EVKLVESGGGLVKPGASLKLSCAASGFTFSNYGISWVRQTSDKRLEWVASISSGGDNTYYPDNVKGRFTISRENAKNTLYLQMSSLKSEDTALYYCARAGEKAMDYWGQGTSVTVSS
VL: DIVLTQSPVTLSVTPGDSVSLSCRASQTINNNLHWYQQKSHESPRLLIKYASQSISGIPSRFSGSGSGTDFTLSINSVETEDFGIYFCQQFSSWPLTFGAGTKLELK
modifications: human IgG1 and kappa constant regions; VH of mouse and chimeric C1H1 antibodies; VL of mouse and chimeric C1H1 antibodies
B1: the Ka was 1.39e+06 M⁻¹ s⁻¹ in test [1] (setting [5]); 2.54e+06 M⁻¹ s⁻¹ in test [1] (setting [6]); 1.82e+06 M⁻¹ s⁻¹ in test [2] (setting [5]); 2.51e+06 M⁻¹ s⁻¹ in test [2] (setting [6]); 1.47e+06 M⁻¹ s⁻¹ in test [3]. Further, the Kd in test [1] (Table 2, Biacore) was 0.001478 s⁻¹; in test [1] (Table 5, Biacore) it was 0.002147 s⁻¹; in test [2] (Table 2, Biacore) it was 0.001567 s⁻¹; in test [2] (Table 5, Biacore) it was 0.002221 s⁻¹; in test [3] (dissociation rate), 0.000929 s⁻¹. Moreover, the “Binding ability to human CD40 in capture ELISA” value in test [4] is “higher binding affinity and ability to human CD40”.

B2: Mouse C1H1: mouse anti-CD40 monoclonal antibody, VH SEQ ID NO: 19, VL SEQ ID NO: 23 (antibody, V domains shown)
VH: B1 VH
VL: B1 VL
modifications: VH of mouse and chimeric C1H1 antibodies; VL of mouse and chimeric C1H1 antibodies
Regarding B2, the Ka stood at 1.39e+06 M⁻¹ s⁻¹ in test [1] (setting [5]), 2.29e+06 M⁻¹ s⁻¹ in test [1] (setting [6]), 1.79e+06 M⁻¹ s⁻¹ in test [2] (setting [5]) and 2.1e+06 M⁻¹ s⁻¹ in test [2] (setting [6]). In addition, the Kd in test [1] (Table 2, Biacore) amounted to 0.001184 s⁻¹; in test [1] (Table 5, Biacore) it was 0.000863 s⁻¹; in test [2] (Table 2, Biacore) it was 0.001227 s⁻¹; in test [2] (Table 5, Biacore), 0.000897 s⁻¹.

B3: huC1H1-V3: humanized C1H1 anti-CD40 antibody, VH SEQ ID NO: 20 X1=A, VL SEQ ID NO: 24 X1=Y X2=Y, human IgG2/κ (antibody, V domains shown)
VH: EVQLVESGGGLVKPGGSLRLSCAASGFTFSNYGISWVRQAPGKGLEWVXSISSGGDNTYYPDNVKGRFTISRDNAKNSLYLQMNSLRAEDTAVYYCARAGEKAMDYWGQGTLVTVSS
VL: EIVLTQSPATLSLSPGERATLSCRASQTINNNLHWYQQKPGQAPRLLIXYASQSISGIPARFSGSGSGTDFTLTISSLEPEDFAVYXCQQFSSWPLTFGGGTKVEIK
modifications: not fully specified; variable positions X1=A; VL X1=Y X2=Y; IgG2/kappa constant; VH of huC1H1-V1 to huC1H1-V4; VARIANT 49 X can be A or S; VL of huC1H1-V1 to huC1H1-V4; VARIANT 49 X can be K or Y; VARIANT 87 X can be F or Y
B3: the Kd in test [3] (dissociation rate) came to 0.00283 s⁻¹; in test [3] (read-out: KD), 5.41 nM. Also, the Ka in test [3] came to 523000 M⁻¹ s⁻¹.

B4: huC1H1-V4: humanized C1H1 anti-CD40 antibody, VH SEQ ID NO: 20 X1=S, VL SEQ ID NO: 24 X1=Y X2=Y, human IgG2/κ (antibody, V domains shown)
VH: B3 VH
VL: B3 VL
modifications: not fully specified; variable positions X1=S; VL X1=Y X2=Y; IgG2/kappa constant; VH of huC1H1-V1 to huC1H1-V4; VARIANT 49 X can be A or S; VL of huC1H1-V1 to huC1H1-V4; VARIANT 49 X can be K or Y; VARIANT 87 X can be F or Y
Turning to B4, the results for the Kd in test [3] (dissociation rate) and in test [3] (read-out: KD) were 0.00367 s⁻¹ and 8.66 nM, respectively. Besides, in test [3], the Ka was determined as 424000 M⁻¹ s⁻¹.
